B1: KCNAB2 (parent)
chain: SSIIHEIDSILGNKPYSKKDYRS

97 variants from the supplement of paper PMC10567573 can be followed below.
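Note: lentivirally expressed fusions sorted by FACS into six bins by GFP to DsRed ratio, PSI derived from sequencing read proportions per bin multiplied by bin number.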

The variants in this data set derive from B1. Nature of the data set: protein stability index of a GFP-peptide fusion (GPS, HEK-293T) (PSI 1-6); higher = more stable. As to conditions: c terminus: native.
For the variant SSIIHEADSILGNKPYSKKDYRS [I7A], the protein stability index came to 4.65.

On to SSIIHEGDSILGNKPYSKKDYRS [I7G], for which the protein stability index is 4.45.

Take SSIIHEMDSILGNKPYSKKDYRS [I7M]: the protein stability index amounted to 2.75.

With SSIIHEEDSILGNKPYSKKDYRS [I7E], the protein stability index was found to be 4.51.

On to SSIIHECDSILGNKPYSKKDYRS [I7C], for which the protein stability index came out at 4.15.

Take SSIIHELDSILGNKPYSKKDYRS [I7L]: the protein stability index stood at 2.86.

As to SSIIHEHDSILGNKPYSKKDYRS [I7H], the protein stability index is 3.97.

As for SSIIHEKDSILGNKPYSKKDYRS [I7K], the protein stability index came to 3.45.

As to SSIIHEFDSILGNKPYSKKDYRS [I7F], the protein stability index was 2.71.

In the case of SSIIHEDDSILGNKPYSKKDYRS [I7D], the protein stability index was 4.4.

For the variant SSIIPEIDSILGNKPYSKKDYRS [H5P], the protein stability index came out at 3.09.

Regarding SSIITEIDSILGNKPYSKKDYRS [H5T], the protein stability index is 3.6.

Regarding SSIIKEIDSILGNKPYSKKDYRS [H5K], the protein stability index came to 3.83.

With SSIIEEIDSILGNKPYSKKDYRS [H5E], the protein stability index turned out to be 2.7.

As to SSIIMEIDSILGNKPYSKKDYRS [H5M], the protein stability index is 1.76.

Take SSIIAEIDSILGNKPYSKKDYRS [H5A]: the protein stability index amounted to 3.83.

In the case of SSIICEIDSILGNKPYSKKDYRS [H5C], the protein stability index stood at 2.42.

Consider SSIINEIDSILGNKPYSKKDYRS [H5N], for which the protein stability index worked out at 3.44.

For the variant SSIIDEIDSILGNKPYSKKDYRS [H5D], the protein stability index came to 3.7.

SSIIIEIDSILGNKPYSKKDYRS [H5I]: the protein stability index turned out to be 1.48.

With SSIIWEIDSILGNKPYSKKDYRS [H5W], the protein stability index was 2.2.

Turning to SSIIYEIDSILGNKPYSKKDYRS [H5Y], the protein stability index amounted to 2.05.

SSIIVEIDSILGNKPYSKKDYRS [H5V]: the protein stability index came out at 2.38.

Turning to SSIISEIDSILGNKPYSKKDYRS [H5S], the protein stability index was found to be 2.98.

For SSIILEIDSILGNKPYSKKDYRS [H5L], the protein stability index amounted to 2.21.

SSIIREIDSILGNKPYSKKDYRS [H5R]: the protein stability index was found to be 3.64.

Take SSIIQEIDSILGNKPYSKKDYRS [H5Q]: the protein stability index stood at 3.02.

On to SSIIGEIDSILGNKPYSKKDYRS [H5G], for which the protein stability index stood at 3.07.

Regarding SSIIFEIDSILGNKPYSKKDYRS [H5F], the protein stability index came out at 2.21.

In the case of SSINHEIDSILGNKPYSKKDYRS [I4N], the protein stability index came to 4.51.

Take SSIFHEIDSILGNKPYSKKDYRS [I4F]: the protein stability index stood at 1.29.

For the variant SSIGHEIDSILGNKPYSKKDYRS [I4G], the protein stability index worked out at 2.69.

Turning to SSIAHEIDSILGNKPYSKKDYRS [I4A], the protein stability index stood at 3.44.

For the variant SSICHEIDSILGNKPYSKKDYRS [I4C], the protein stability index came to 3.6.

Regarding SSILHEIDSILGNKPYSKKDYRS [I4L], the protein stability index turned out to be 2.56.

On to SSIPHEIDSILGNKPYSKKDYRS [I4P], for which the protein stability index came to 4.63.

With SSIEHEIDSILGNKPYSKKDYRS [I4E], the protein stability index was 3.9.

Turning to SSIQHEIDSILGNKPYSKKDYRS [I4Q], the protein stability index worked out at 4.26.

On to SSIDHEIDSILGNKPYSKKDYRS [I4D], for which the protein stability index was 4.28.

Turning to SSIVHEIDSILGNKPYSKKDYRS [I4V], the protein stability index stood at 2.46.

SSIWHEIDSILGNKPYSKKDYRS [I4W]: the protein stability index is 1.4.

In the case of SSITHEIDSILGNKPYSKKDYRS [I4T], the protein stability index came to 3.95.

For the variant SSIRHEIDSILGNKPYSKKDYRS [I4R], the protein stability index came out at 2.94.

With SSIYHEIDSILGNKPYSKKDYRS [I4Y], the protein stability index came to 2.75.

SSIMHEIDSILGNKPYSKKDYRS [I4M]: the protein stability index turned out to be 2.59.

For the variant SSIKHEIDSILGNKPYSKKDYRS [I4K], the protein stability index is 2.81.

As to SSIHHEIDSILGNKPYSKKDYRS [I4H], the protein stability index turned out to be 2.86.

For the variant SSISHEIDSILGNKPYSKKDYRS [I4S], the protein stability index was 3.25.

In the case of SMIIHEIDSILGNKPYSKKDYRS [S2M], the protein stability index was determined as 1.98.

Consider STIIHEIDSILGNKPYSKKDYRS [S2T], for which the protein stability index turned out to be 3.75.

As for SQIIHEIDSILGNKPYSKKDYRS [S2Q], the protein stability index came out at 3.07.

Regarding SLIIHEIDSILGNKPYSKKDYRS [S2L], the protein stability index was determined as 1.77.

On to SIIIHEIDSILGNKPYSKKDYRS [S2I], for which the protein stability index was 1.72.

Regarding SPIIHEIDSILGNKPYSKKDYRS [S2P], the protein stability index turned out to be 3.68.

Turning to SRIIHEIDSILGNKPYSKKDYRS [S2R], the protein stability index turned out to be 3.13.

With SYIIHEIDSILGNKPYSKKDYRS [S2Y], the protein stability index was found to be 2.24.

Take SKIIHEIDSILGNKPYSKKDYRS [S2K]: the protein stability index is 1.66.

Turning to SVIIHEIDSILGNKPYSKKDYRS [S2V], the protein stability index turned out to be 1.89.

As for SNIIHEIDSILGNKPYSKKDYRS [S2N], the protein stability index came to 3.43.

Consider SWIIHEIDSILGNKPYSKKDYRS [S2W], for which the protein stability index is 2.66.

As to SSGIHEIDSILGNKPYSKKDYRS [I3G], the protein stability index is 4.46.

In the case of SSRIHEIDSILGNKPYSKKDYRS [I3R], the protein stability index was 4.09.

With SSNIHEIDSILGNKPYSKKDYRS [I3N], the protein stability index worked out at 4.2.

Take SSVIHEIDSILGNKPYSKKDYRS [I3V]: the protein stability index is 3.61.

Regarding SSDIHEIDSILGNKPYSKKDYRS [I3D], the protein stability index is 4.67.

As to SSMIHEIDSILGNKPYSKKDYRS [I3M], the protein stability index came out at 3.17.

For SSHIHEIDSILGNKPYSKKDYRS [I3H], the protein stability index amounted to 4.

Turning to SSWIHEIDSILGNKPYSKKDYRS [I3W], the protein stability index stood at 1.72.

Regarding SSQIHEIDSILGNKPYSKKDYRS [I3Q], the protein stability index amounted to 2.53.

In the case of SSPIHEIDSILGNKPYSKKDYRS [I3P], the protein stability index was determined as 3.96.

As for SSTIHEIDSILGNKPYSKKDYRS [I3T], the protein stability index was 4.58.

Take SSCIHEIDSILGNKPYSKKDYRS [I3C]: the protein stability index was determined as 3.85.

With SSEIHEIDSILGNKPYSKKDYRS [I3E], the protein stability index was 4.16.

Turning to SSLIHEIDSILGNKPYSKKDYRS [I3L], the protein stability index was determined as 2.9.

On to SSYIHEIDSILGNKPYSKKDYRS [I3Y], for which the protein stability index amounted to 3.17.

Take SSKIHEIDSILGNKPYSKKDYRS [I3K]: the protein stability index turned out to be 2.78.

Regarding SSFIHEIDSILGNKPYSKKDYRS [I3F], the protein stability index is 2.83.

As for SSSIHEIDSILGNKPYSKKDYRS [I3S], the protein stability index worked out at 4.63.

Regarding SSAIHEIDSILGNKPYSKKDYRS [I3A], the protein stability index was determined as 3.94.

For the variant SSIIHIIDSILGNKPYSKKDYRS [E6I], the protein stability index came out at 2.01.

With SSIIHGIDSILGNKPYSKKDYRS [E6G], the protein stability index is 2.82.

With SSIIHFIDSILGNKPYSKKDYRS [E6F], the protein stability index stood at 3.61.

Regarding SSIIHQIDSILGNKPYSKKDYRS [E6Q], the protein stability index was determined as 2.62.

Regarding SSIIHKIDSILGNKPYSKKDYRS [E6K], the protein stability index turned out to be 3.21.

With SSIIHSIDSILGNKPYSKKDYRS [E6S], the protein stability index was determined as 2.66.

Turning to SSIIHLIDSILGNKPYSKKDYRS [E6L], the protein stability index stood at 3.25.

In the case of SSIIHNIDSILGNKPYSKKDYRS [E6N], the protein stability index stood at 3.65.

For the variant SSIIHTIDSILGNKPYSKKDYRS [E6T], the protein stability index is 2.23.

As for SSIIHYIDSILGNKPYSKKDYRS [E6Y], the protein stability index is 1.69.

SSIIHWIDSILGNKPYSKKDYRS [E6W]: the protein stability index was found to be 3.44.

In the case of SSIIHPIDSILGNKPYSKKDYRS [E6P], the protein stability index was determined as 2.9.

Take SSIIHVIDSILGNKPYSKKDYRS [E6V]: the protein stability index came to 3.15.

With SSIIHAIDSILGNKPYSKKDYRS [E6A], the protein stability index was determined as 1.72.

As to SSIIHHIDSILGNKPYSKKDYRS [E6H], the protein stability index was found to be 2.31.

In the case of SSIIHRIDSILGNKPYSKKDYRS [E6R], the protein stability index is 2.26.

With SSIIHDIDSILGNKPYSKKDYRS [E6D], the protein stability index is 2.97.

For the variant SSIIHCIDSILGNKPYSKKDYRS [E6C], the protein stability index stood at 1.94.
